± gives the uncertainty stated by the source.
B1: Gamma-crystallin S, residues 96 to 176; numbered along this chain, P22914 (parent)
chain: IQIFEKGDFSGQMYETTEDCPSIMEQFHMREIHSCKVLEGVWIFYELPNYRGRQYLLDKKEYRKPIDWGAASPAVQSFRRI

Variants of: B1
Assay: abundance fitness (aPCA) (normalised: wild type 0, dead -1); higher = more abundant; growth selection in yeast, the domain comes from the species named
Details: Homo sapiens

| Variant | abundance fitness |
| --- | --- |
| S22T | -0.08 ± 0.066 |
| S22V | 0.017 ± 0.051 |
| S22N | 0.001 ± 0.11 |
| S22Q | -0.019 ± 0.11 |
| E39K | 0 ± 0.069 |
| Y55H | 0.218 ± 0.32 |
| R51I | -0.04 ± 0.083 |
| R51S | 0.044 ± 0.056 |
| R51D | 0 ± 0.11 |
| K59E | -0.31 ± 0.33 |
| K59D | -0.153 ± 0.18 |
| K59P | -0.229 ± 0.21 |
| V37M | 0.049 ± 0.057 |
| Y14S | 0.07 ± 0.061 |
| I81N | 0.165 ± 0.49 |
| I81S | -0.043 ± 0.38 |
| I1C | 0.104 ± 0.11 |
| I1V | 0.05 ± 0.073 |
| R79V | -0.596 ± 0.26 |
| R79S | -0.036 ± 0.06 |
| R79W | -0.419 ± 0.33 |
| E5M | 0.028 ± 0.12 |
| E5Y | 0.083 ± 0.1 |
| E5H | -0.041 ± 0.11 |

| Variant | abundance fitness |
| --- | --- |
| E5F | 0.057 ± 0.084 |
| F4T | -0.585 ± 0.094 |
| F4W | -0.067 ± 0.056 |
| F4Y | -0.094 ± 0.096 |
| F4S | -0.113 ± 0.031 |
| L56K | -0.161 ± 0.43 |
| L56V | -0.133 ± 0.44 |
| T16M | 0.061 ± 0.13 |
| T16G | 0.006 ± 0.054 |
| L38R | 0.004 ± 0.037 |
| L38Y | -0.079 ± 0.096 |
| L38W | -0.024 ± 0.049 |
| L38Q | -0.072 ± 0.054 |
| P73D | -0.23 ± 0.24 |
| P73F | 0.27 ± 0.31 |
| P21C | -0.011 ± 0.081 |
| P21V | 0.009 ± 0.042 |
| P21T | -0.012 ± 0.074 |
| P21W | 0.037 ± 0.062 |
| P21R | -0.106 ± 0.045 |
| P21M | -0.057 ± 0.071 |
| I3S | -0.931 ± 0.13 |
| I3R | -0.703 ± 0.081 |
| I3M | -0.018 ± 0.072 |

| Variant | abundance fitness |
| --- | --- |
| D19A | -0.005 ± 0.057 |
| D19Q | 0.181 ± 0.12 |
| D19H | 0.143 ± 0.22 |
| D19G | -0.035 ± 0.05 |
| D19I | -0.144 ± 0.087 |
| G69P | -0.294 ± 0.18 |
| G69K | -0.127 ± 0.18 |
| S72Y | 0.173 ± 0.21 |
| S72N | -0.204 ± 0.25 |
| S72T | -0.1 ± 0.33 |
| S72R | -0.154 ± 0.14 |
| C20L | -0.142 ± 0.051 |
| C20E | -0.144 ± 0.072 |
| C20D | -0.754 ± 0.24 |
| E15Y | 0.115 ± 0.12 |
| E15G | -0.044 ± 0.059 |
| E15P | -0.038 ± 0.098 |
| A70M | -0.023 ± 0.13 |
| A70Q | -0.057 ± 0.14 |
| A70R | 0.104 ± 0.093 |
| A70F | -0.025 ± 0.18 |
| F44H | -0.441 ± 0.075 |
| F44N | -0.868 ± 0.44 |
| F44A | -0.007 ± 0.05 |

| Variant | abundance fitness |
| --- | --- |
| E31I | 0.05 ± 0.081 |
| E31L | 0.056 ± 0.051 |
| E31M | -0.039 ± 0.089 |
| V75F | 0.146 ± 0.21 |
| V75D | -0.724 ± 0.28 |
| F9V | -0.12 ± 0.036 |
| F9P | -0.481 ± 0.052 |
| F9C | 0.054 ± 0.056 |
| F9Y | -0.008 ± 0.092 |
| F9M | 0.061 ± 0.068 |
| F9E | -0.18 ± 0.049 |
| Y62H | 0.117 ± 0.33 |
| Y62F | 0.16 ± 0.43 |
| N49G | 0.011 ± 0.023 |
| E61L | -0.135 ± 0.26 |
| Y50K | -0.884 ± 0.09 |
| D8C | 0.111 ± 0.092 |
| D8I | 0.025 ± 0.084 |
| G52A | -0.741 ± 0.069 |
| G52Q | -1 ± 0.13 |
| T17S | -0.068 ± 0.062 |
| T17N | -0.02 ± 0.18 |
| L57N | -0.526 ± 0.38 |
| V41T | 0.096 ± 0.089 |

| Variant | abundance fitness |
| --- | --- |
| V41K | 0.052 ± 0.12 |
| M24T | 0.007 ± 0.06 |
| M24I | -0.017 ± 0.11 |
| M24A | -0.054 ± 0.059 |
| W42R | -0.986 ± 0.093 |
| W42L | -0.241 ± 0.064 |
| W42S | -0.901 ± 0.091 |
| I43Y | 0.047 ± 0.12 |
| I66S | 0.061 ± 0.46 |
| I66T | -0.047 ± 0.22 |
| I23K | -0.588 ± 0.083 |
| I23V | 0.004 ± 0.048 |
| S34C | -0.047 ± 0.056 |
| S34R | -0.623 ± 0.06 |
| G11H | -0.021 ± 0.074 |
| S10M | -0.033 ± 0.068 |
| S10R | -0.018 ± 0.038 |
| S10V | -0.003 ± 0.045 |
| S10N | 0.069 ± 0.1 |
| S10T | -0.157 ± 0.061 |
| S10K | 0.006 ± 0.08 |
| K6G | 0.004 ± 0.044 |
| K6D | 0.015 ± 0.085 |
| R53C | -0.064 ± 0.082 |

| Variant | abundance fitness |
| --- | --- |
| R53E | 0.036 ± 0.06 |
| R53A | -0.039 ± 0.045 |
| H28A | 0.045 ± 0.058 |
| H28I | 0.079 ± 0.17 |
| M13D | -0.032 ± 0.16 |
| M13A | -0.011 ± 0.051 |
| M13Y | 0.094 ± 0.15 |
| M13K | -0.032 ± 0.064 |
| Q26E | 0.079 ± 0.089 |
| Q26D | 0.073 ± 0.11 |
| A74M | -0.011 ± 0.19 |
| D67I | 0.127 ± 0.3 |
| H33K | -0.12 ± 0.077 |
| H33V | -0.013 ± 0.039 |
| H33S | 0.03 ± 0.047 |
| H33A | -0.047 ± 0.049 |
| W68M | 0.131 ± 0.14 |
| W68E | -0.059 ± 0.14 |
| W68K | -0.067 ± 0.15 |
| K64T | -0.164 ± 0.17 |
| D58A | 0.04 ± 0.12 |
| R80G | 0.028 ± 0.13 |
| K60G | 0.017 ± 0.086 |
| P48M | -0.193 ± 0.099 |

| Variant | abundance fitness |
| --- | --- |
| P48F | -0.388 ± 0.17 |
| P48T | 0.002 ± 0.081 |
| Y45N | -0.123 ± 0.16 |
| Y45L | -0.651 ± 0.098 |
| Y45I | -1.1 ± 0.45 |
| Q54L | -0.121 ± 0.049 |
| Q54V | -0.045 ± 0.039 |
| E18V | 0.002 ± 0.049 |
| E18Q | 0.009 ± 0.11 |
| E18T | -0.046 ± 0.085 |
| E18F | -0.007 ± 0.12 |
| E18M | -0.066 ± 0.12 |
| E18H | -0.039 ± 0.27 |
| E18C | 0.006 ± 0.17 |
| K36T | -0.019 ± 0.057 |
| R63E | -0.032 ± 0.14 |
| R30G | 0 ± 0.038 |
| R30T | 0.011 ± 0.073 |
| L47D | -0.093 ± 0.18 |
| L47H | 0.065 ± 0.11 |
| L47Q | -0.113 ± 0.12 |
| G7A | 0.043 ± 0.043 |
| G7N | -0.16 ± 0.13 |
